Experimental data: patent publication US20200199241A1 (Chugai, published 2020)
Residue numbers refer to the chain shown, from its start.

B1: IgG1-F1266 (antibody)
heavy: QVQLQESGPGLVKPSETLSLTCAVSGHSISHDHAWSWVRQPPGEGLEWIGFISYSGITNYNPSLQGRVTISRDNSKNTLYLQMNSLRAEDTAVYYCARSLARTTAMDYWGEGTLVTVSSASTKGPSVFPLAPSSKSTSGGTAALGCLVKDYFPEPVTVSWNSGALTSGVHTFPAVLQSSGLYSLSSVVTVPSSSLGTQTYICNVNHKPSNTKVDKKVEPKSCDKTHTCPPCPAPELRGGPKVFLFPPKPKDTLYISRNPEVTCVVVDVSHEDPEVKFNWYVDGVEVHNAKTKPREEQYNSTYRVVSVLTVLHQDWLNGKEYKCKVSNKALPAPIEKTISKAKGQPREPQVYTLPPSRDELTKNQVSLTCLVKGFYPSDIAVEWESNGQPENNYKTTPPVLDSDGSFFLYSKLTVDKSRWQQGNVFSCSVMHEALHYHVTRKELSLSP
light: not shown
notes: EU numbering; copies: 2 + 2
B2: IgG1-F1295 (antibody)
heavy: B1 heavy with N258E, V438F
light: not shown
notes: EU numbering; copies: 2 + 2
B3: IgG1-F1305 (antibody)
heavy: B1 heavy with N258T, H435D, E442D
light: not shown
notes: EU numbering; copies: 2 + 2
B4: IgG1-F1273 (antibody)
heavy: B1 heavy with N258Q, R440K, E442D
light: not shown
notes: EU numbering; copies: 2 + 2
B5: IgG1-F1299 (antibody)
heavy: B1 heavy with N258E, V438Y, R440K, E442D
light: not shown
notes: EU numbering; copies: 2 + 2
B6: IgG1-F1278 (antibody)
heavy: B1 heavy with N258A, H435D, R440K, E442D
light: not shown
notes: EU numbering; copies: 2 + 2
B7: IgG1-F1297 (antibody)
heavy: B1 heavy with N258E, H435D, V438T
light: not shown
notes: EU numbering; copies: 2 + 2
B8: IgG1-F1267 (antibody)
heavy: B1 heavy with S256A, N258T
light: not shown
notes: EU numbering; copies: 2 + 2
B9: IgG1-F1276 (antibody)
heavy: B1 heavy with N258A, R440K, E442D
light: not shown
notes: EU numbering; copies: 2 + 2
B10: IgG1-F1310 (antibody)
heavy: B1 heavy with N258T, R440L, E442L
light: not shown
notes: EU numbering; copies: 2 + 2
B11: IgG1-F1292 (antibody)
heavy: B1 heavy with Y254M, N258T, H435D, Y436W
light: not shown
notes: EU numbering; copies: 2 + 2
B12: IgG1-F1285 (antibody)
heavy: B1 heavy with S256T, N258T, R440K, E442D
light: not shown
notes: EU numbering; copies: 2 + 2
B13: IgG1-F1268 (antibody)
heavy: B1 heavy with N258T, H435D
light: not shown
notes: EU numbering; copies: 2 + 2
B14: IgG1-F1301 (antibody)
heavy: B1 heavy with N258E, V438F, R440K, E442D
light: not shown
notes: EU numbering; copies: 2 + 2
B15: IgG1-F1271 (antibody)
heavy: B1 heavy with S256A, N258T, H435D
light: not shown
notes: EU numbering; copies: 2 + 2
B16: IgG1-F1302 (antibody)
heavy: B1 heavy with N258E, H435D, V438Y, R440K, E442D
light: not shown
notes: EU numbering; copies: 2 + 2
B17: IgG1-F1300 (antibody)
heavy: B1 heavy with N258E, V438T, R440K, E442D
light: not shown
notes: EU numbering; copies: 2 + 2
B18: IgG1-F1277 (antibody)
heavy: B1 heavy with N258A, H435D
light: not shown
notes: EU numbering; copies: 2 + 2
B19: IgG1-F1311 (antibody)
heavy: B1 heavy with N258T, V424A, S426A, H435D, R440Q, E442S
light: not shown
notes: EU numbering; copies: 2 + 2
B20: IgG1-F1290 (antibody)
heavy: B1 heavy with N258E, H435D, R440K, E442D
light: not shown
notes: EU numbering; copies: 2 + 2
B21: IgG1-F1282 (antibody)
heavy: B1 heavy with R440K, E442D
light: not shown
notes: EU numbering; copies: 2 + 2
B22: IgG1-F1306 (antibody)
heavy: B1 heavy with N258T, H435D, R440K
light: not shown
notes: EU numbering; copies: 2 + 2
B23: IgG1-F1289 (antibody)
heavy: B1 heavy with N258E, H435D
light: not shown
notes: EU numbering; copies: 2 + 2
B24: IgG1-F1279 (antibody)
heavy: B1 heavy with N258G, R440K, E442D
light: not shown
notes: EU numbering; copies: 2 + 2
B25: IgG1-F1309 (antibody)
heavy: B1 heavy with N258T, R440A, E442A
light: not shown
notes: EU numbering; copies: 2 + 2
B26: IgG1-F1283 (antibody)
heavy: B1 heavy with H435D
light: not shown
notes: EU numbering; copies: 2 + 2
B27: IgG1-F1307 (antibody)
heavy: B1 heavy with N258T, V424A, S426A, R440Q, E442S
light: not shown
notes: EU numbering; copies: 2 + 2
B28: IgG1-F1293 (antibody)
heavy: B1 heavy with N258E, V438Y
light: not shown
notes: EU numbering; copies: 2 + 2
B29: IgG1-F1308 (antibody)
heavy: B1 heavy with N258T, V424L, S426L, R440Q, E442S
light: not shown
notes: EU numbering; copies: 2 + 2
B30: IgG1-F1281 (antibody)
heavy: B1 heavy with N258G, H435D, R440K, E442D
light: not shown
notes: EU numbering; copies: 2 + 2
B31: IgG1-F1304 (antibody)
heavy: B1 heavy with N258E, H435D, V438F, R440K, E442D
light: not shown
notes: EU numbering; copies: 2 + 2
B32: IgG1-F1294 (antibody)
heavy: B1 heavy with N258E, V438T
light: not shown
notes: EU numbering; copies: 2 + 2
B33: IgG1-F1286 (antibody)
heavy: B1 heavy with S256T, N258T, H435D
light: not shown
notes: EU numbering; copies: 2 + 2
B34: IgG1-F1275 (antibody)
heavy: B1 heavy with N258Q, H435D, R440K, E442D
light: not shown
notes: EU numbering; copies: 2 + 2
B35: IgG1-F1287 (antibody)
heavy: B1 heavy with S256T, N258T, H435D, R440K, E442D
light: not shown
notes: EU numbering; copies: 2 + 2
B36: IgG1-F1284 (antibody)
heavy: B1 heavy with H435D, R440K, E442D
light: not shown
notes: EU numbering; copies: 2 + 2
B37: IgG1-F1303 (antibody)
heavy: B1 heavy with N258E, H435D, V438T, R440K, E442D
light: not shown
notes: EU numbering; copies: 2 + 2
B38: IgG1-F1298 (antibody)
heavy: B1 heavy with N258E, H435D, V438F
light: not shown
notes: EU numbering; copies: 2 + 2
B39: IgG1-F1274 (antibody)
heavy: B1 heavy with N258Q, H435D
light: not shown
notes: EU numbering; copies: 2 + 2
B40: IgG1-F1296 (antibody)
heavy: B1 heavy with N258E, H435D, V438Y
light: not shown
notes: EU numbering; copies: 2 + 2
B41: IgG1-F1280 (antibody)
heavy: B1 heavy with N258G, H435D
light: not shown
notes: EU numbering; copies: 2 + 2
B42: IgG1-F1291 (antibody)
heavy: B1 heavy with N258T, H435D, R440Q, E442S
light: not shown
notes: EU numbering; copies: 2 + 2

target: T1, soluble human FcRn complexed with β2-microglobulin (human, UniProt P61769 21-119, limits assumed); test: Biacore SPR, pH 7.0;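 further: test antibodies captured on a Protein L chip with human FcRn flowed over as analyte, KD obtained as the ratio of dissociation to association rate constants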
T1 construct: also called hFcRn
T1 sequence (chain, as listed by the source limits assumed, chain 1 of 2): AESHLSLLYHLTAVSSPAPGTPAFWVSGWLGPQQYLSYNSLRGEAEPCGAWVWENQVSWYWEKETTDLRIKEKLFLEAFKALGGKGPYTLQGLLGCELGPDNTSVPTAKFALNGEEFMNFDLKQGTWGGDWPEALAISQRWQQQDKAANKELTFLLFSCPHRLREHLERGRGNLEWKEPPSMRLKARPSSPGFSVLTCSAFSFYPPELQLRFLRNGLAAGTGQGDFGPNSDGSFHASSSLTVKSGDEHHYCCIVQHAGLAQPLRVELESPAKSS
T1 sequence (P61769 21-119 limits assumed, chain 2 of 2): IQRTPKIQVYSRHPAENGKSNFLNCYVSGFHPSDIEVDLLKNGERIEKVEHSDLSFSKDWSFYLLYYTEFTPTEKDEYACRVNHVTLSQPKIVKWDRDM

Binder | Kd [nM]
B1 | 99.9
B2 | 98.4
B3 | 205
B4 | 153
B5 | 150
B6 | 140
B7 | 250
B8 | 150
B9 | 102
B10 | 228
B11 | 424
B12 | 93.6
B13 | 200
B14 | 83
B15 | 205
B16 | 215
B17 | 163
B18 | 169
B19 | 369
B20 | 111
B21 | 76.9

Binder | Kd [nM]
B22 | 192
B23 | 333
B24 | 123
B25 | 126
B26 | 134
B27 | 144
B28 | 161
B29 | 206
B30 | 174
B31 | 124
B32 | 200
B33 | 157
B34 | 209
B35 | 150
B36 | 112
B37 | 210
B38 | 147
B39 | 248
B40 | 227
B41 | 209
B42 | 151
